In patent publication US20210244739A1 one finds virus titre increase between 5 hpi and 48 hpi in HeLa cells data, which are given here for one substance.

The target of the experiment is human protein kinase R (PKR) (human) (UniProt P19525). The experiment can be described thus: cell-based or functional assay.
Sequence of UniProt P19525 (P19525 2-551 limits assumed): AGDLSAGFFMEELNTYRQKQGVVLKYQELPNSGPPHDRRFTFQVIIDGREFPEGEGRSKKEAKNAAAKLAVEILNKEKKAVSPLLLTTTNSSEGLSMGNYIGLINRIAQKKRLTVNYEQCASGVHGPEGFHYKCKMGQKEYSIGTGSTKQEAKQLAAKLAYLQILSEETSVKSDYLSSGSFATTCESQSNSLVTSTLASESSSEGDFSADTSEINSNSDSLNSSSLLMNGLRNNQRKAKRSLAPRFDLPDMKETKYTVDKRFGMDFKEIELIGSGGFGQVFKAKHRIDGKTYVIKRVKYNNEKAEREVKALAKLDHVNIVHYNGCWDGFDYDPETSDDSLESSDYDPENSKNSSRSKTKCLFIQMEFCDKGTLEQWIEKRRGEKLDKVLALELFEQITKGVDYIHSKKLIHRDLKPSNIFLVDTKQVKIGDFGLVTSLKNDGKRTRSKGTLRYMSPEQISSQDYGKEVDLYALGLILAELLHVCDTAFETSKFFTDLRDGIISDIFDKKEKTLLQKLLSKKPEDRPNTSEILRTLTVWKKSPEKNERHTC

The substance “Yaba monkey tumor virus 012 (K3 ortholog)” yielded a virus titre increase between 5 hpi and 48 hpi in HeLa cells of more than 10 fold.
